{
  "source": "patent US20230220042A1",
  "about": "(SHANGHAI JIAO TONG UNIVERSITY SCHOOL OF MEDICINE, published 2023)",
  "binders": {"B1": {"name": "human IgG2 anti-mouse CD40 surface displayed antibody, V234Q/V266L/S267E/H268S/E269V (antibody)", "light chain (with the P2A rest)": "DTVLTQSPALAVSPGERVTISCRASDSVSTLMHWYQQKPGQQPKLLIYLASHLESGVPARFSGSGSGTDFTLTIDPVEADDTATYYCQQSWNDPWTFGGGTKLELKRTVAAPSVFIFPPSDEQLKSGTASVVCLLNNFYPREAKVQWKVDNALQSGNSQESVTEQDSKDSTYSLSSTLTLSKADYEKHKVYACEVTHQGLSSPVTKSFNRGECGSGATNFSLLKQAGDVEENPG", "heavy": "EVQLVESDGGLVQPGRSLKLPCAASGFTFSDYYMAWVRQAPTKGLEWVASISYDGSSTYYRDSVKGRFTISRDNAKSTLYLQMDSLRSEDTATYYCGRHSSYFDYWGQGVMVTVSSASTKGPSVFPLAPCSRSTSESTAALGCLVKDYFPEPVTVSWNSGALTSGVHTFPAVLQSSGLYSLSSVVTVPSSNFGTQTYTCNVDHKPSNTKVDKTVERKCCVECPPCPAPPQAGPSVFLFPPKPKDTLMISRTPEVTCVVVDLESVDPEVQFNWYVDGVEVHNAKTKPREEQFNSTFRVVSVLTVVHQDWLNGKEYKCKVSNKGLPAPIEKTISKTKGQPREPQVYTLPPSREEMTKNQVSLTCLVKGFYPSDIAVEWESNGQPENNYKTTPPMLDSDGSFFLYSKLTVDKSRWQQGNVFSCSVMHEALHNHYTQKSLSLSPGKLEPPPSTVSNMATVAVLVVLGAAIVTGAVVAFVMKMRRRNTGGKGGDYALAPGSQTSDLSLPDCKVMVHDPHSLA", "notes": "As m1 with the Fc mutations; copies: 2 + 2"}, "B2": {"name": "human IgG2 anti-mouse CD40 surface displayed antibody, V266L/S267D/H268D/E269D/P271Q (antibody, name in EU numbering)", "light chain (with the P2A rest)": "B1 light chain (with the P2A rest)", "heavy chain": "B1 heavy with Q230V, E262D, S263D, V264D, P266Q", "notes": "As m1 with the Fc mutations"}, "B3": {"name": "anti-human OX40 antibody, human IgG2 Fc mutant Mut_24 (V266L/S267E/H268S/E269G/P271T) (antibody, name in EU numbering)", "heavy": "QVQLQESGPGLVKPSGTLSLTCAVSGGSISSSIWWSWVRQPPGKGLEWIGEIHHSGNTNCNPSLKSRVTISIDKSKNQFSLKLTSVTAADTAVYYCARAGTGTTLDYWGQGTLVTVSSASTKGPSVFPLAPCSRSTSESTAALGCLVKDYFPEPVTVSWNSGALTSGVHTFPAVLQSSGLYSLSSVVTVPSSNFGTQTYTCNVDHKPSNTKVDKTVERKCCVECPPCPAPPVAGPSVFLFPPKPKDTLMISRTPEVTCVVVDLESGDTEVQFNWYVDGVEVHNAKTKPREEQFNSTFRVVSVLTVVHQDWLNGKEYKCKVSNKGLPAPIEKTISKTKGQPREPQVYTLPPSREEMTKNQVSLTCLVKGFYPSDIAVEWESNGQPENNYKTTPPMLDSDGSFFLYSKLTVDKSRWQQGNVFSCSVMHEALHNHYTQKSLSLSPGK", "light": "EIVLTQSPGTLSLSPGERATLSCRASQSVSGDYLAWYQQKLGQAPRLLIYGASIRATGIPDRFSGSGSGTDFTLTISKLEPEDFAVYYCQQYGSSPLTFGGGTKVEIKRTVAAPSVFIFPPSDEQLKSGTASVVCLLNNFYPREAKVQWKVDNALQSGNSQESVTEQDSKDSTYSLSSTLTLSKADYEKHKVYACEVTHQGLSSPVTKSFNRGEC"}},
  "key": {"[1]": {"target": "T1, Biotin-FcγRIIB (human, UniProt P31994 43-217, limits assumed, biotin label)", "T1 construct": "Soluble labelled protein used to stain and sort the display cells; also called human FcγRIIB; CD32b", "T1 sequence (looked up)": "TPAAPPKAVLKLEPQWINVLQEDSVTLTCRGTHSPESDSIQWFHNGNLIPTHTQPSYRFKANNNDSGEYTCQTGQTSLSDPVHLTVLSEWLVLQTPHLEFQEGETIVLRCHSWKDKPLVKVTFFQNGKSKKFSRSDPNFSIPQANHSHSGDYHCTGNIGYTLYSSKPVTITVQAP", "assay": "NGS of 3T3 display library C2 flow-sorted for FcγRIIB binding"}, "[2]": {"target": "human OX40 (human) (UniProt P43489)", "sequence (P43489 29-277)": "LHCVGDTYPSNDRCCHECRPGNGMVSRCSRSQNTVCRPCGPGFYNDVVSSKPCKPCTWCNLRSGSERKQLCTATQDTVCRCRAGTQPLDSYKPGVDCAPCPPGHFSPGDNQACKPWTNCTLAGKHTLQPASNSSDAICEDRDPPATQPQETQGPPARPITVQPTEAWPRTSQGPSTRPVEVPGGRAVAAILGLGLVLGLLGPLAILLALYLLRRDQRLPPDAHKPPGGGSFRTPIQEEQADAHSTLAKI", "assay": "cell-based or functional assay"}},
  "note": "Changes are numbered by the printed parent chain. In names and notes the source's numbering stands.",
  "data": [
    {"binder": "B1", "values": [
      {"measurement": "enrichment factor, percentage after 3rd sorting/percentage after 2nd sorting", "setting": "[1]", "result": 11.4, "unit": "ratio"},
      {"measurement": "percentage after 2nd sorting", "setting": "[1]", "result": 0.01, "unit": "%"},
      {"measurement": "percentage after 3rd sorting", "setting": "[1]", "result": 0.09, "unit": "%"}
    ]},
    {"binder": "B2", "values": [
      {"measurement": "enrichment factor, percentage after 1st sorting/percentage before sorting", "setting": "[1]", "result": 122, "unit": "ratio"},
      {"measurement": "enrichment factor, percentage after 2nd sorting/percentage after 1st sorting", "setting": "[1]", "result": 4.07, "unit": "ratio"},
      {"measurement": "enrichment factor, percentage after 3rd sorting/percentage after 2nd sorting", "setting": "[1]", "result": 3.8, "unit": "ratio"},
      {"measurement": "enrichment factor, percentage after 3rd sorting/percentage before sorting", "setting": "[1]", "result": 1880, "unit": "ratio"},
      {"measurement": "increased factor, mutant enrichment factor/wild-type enrichment factor", "setting": "[1]", "result": 1340, "unit": "ratio"},
      {"measurement": "percentage after 1st sorting", "setting": "[1]", "result": 0.12, "unit": "%"},
      {"measurement": "percentage after 2nd sorting", "setting": "[1]", "result": 0.49, "unit": "%"},
      {"measurement": "percentage after 3rd sorting", "setting": "[1]", "result": 1.88, "unit": "%"},
      {"measurement": "percentage before sorting", "setting": "[1]", "result": 0, "unit": "%"}
    ]},
    {"binder": "B3", "values": [
      {"measurement": "Average increased factor of the activity over wild-type IgG2 of two experiments", "setting": "[2]", "result": 9.75},
      {"measurement": "Average relative activity of two experiments", "setting": "[2]", "result": 0.43},
      {"measurement": "Experiment 1 CFSE fluorescence intensity, 0.01 µg/ml", "setting": "[2]", "result": 912},
      {"measurement": "Experiment 1 CFSE fluorescence intensity, 0.1 µg/ml", "setting": "[2]", "result": 812},
      {"measurement": "Experiment 1 CFSE fluorescence intensity, 1 µg/ml", "setting": "[2]", "result": 816},
      {"measurement": "Experiment 1 average relative activity", "setting": "[2]", "result": 0.36},
      {"measurement": "Experiment 1 relative activity, 0.01 µg/ml", "setting": "[2]", "result": 0.24},
      {"measurement": "Experiment 1 relative activity, 0.1 µg/ml", "setting": "[2]", "result": 0.42},
      {"measurement": "Experiment 1 relative activity, 1 µg/ml", "setting": "[2]", "result": 0.41},
      {"measurement": "Experiment 2 CFSE fluorescence intensity, 0.1 µg/ml", "setting": "[2]", "result": 2050},
      {"measurement": "Experiment 2 CFSE fluorescence intensity, 1 µg/ml", "setting": "[2]", "result": 1650},
      {"measurement": "Experiment 2 average relative activity", "setting": "[2]", "result": 0.53},
      {"measurement": "Experiment 2 relative activity, 0.1 µg/ml", "setting": "[2]", "result": 0.43},
      {"measurement": "Experiment 2 relative activity, 1 µg/ml", "setting": "[2]", "result": 0.64}
    ]}
  ]
}
